Reference: article PMC3433037
Blank lines part the entries; values can stand above or below the substance they belong to.

Assays:
Assay in all cases: SEC
[1] = target: Δ4-ClpP (Escherichia coli)
[2] = target: Δ6-ClpP (Escherichia coli)
[3] = target: Δ10-ClpP (Escherichia coli)
[4] = target: Δ14-ClpP (Escherichia coli)
[5] = target: Δ17-ClpP (Escherichia coli)

- stoichiometry N [1]: 14
Substance: Δ4-ClpP (domain or fragment)

- stoichiometry N [2]: 14
Substance: Δ6-ClpP (domain or fragment)

- stoichiometry N [3]: 14
Substance: Δ10-ClpP (domain or fragment)

- stoichiometry N [4]: 14
Substance: Δ14-ClpP (domain or fragment)

- stoichiometry N [5]: 14
Substance: Δ17-ClpP (domain or fragment)
